As usually defined, the stoichiometry N is a count of units in the complex or per binding partner.

B1: human HspB2 (natural protein, UniProt Q16082 1-182, looked up)
chain: MSGRSVPHAHPATAEYEFANPSRLGEQRFGEGLLPEEILTPTLYHGYYVRPRAAPAGEGSRAGASELRLSEGKFQAFLDVSHFTPDEVTVRTVDNLLEVSARHPQRLDRHGFVSREFCRTYVLPADVDPWRVRAALSHDGILNLEAPRGGRHLDTEVNEVYISLLPAPPDPEEEEEAAIVEP
notes: human HspB2 (small heat shock protein B2); Made together with HspB3 from one pET3a construct; also called HsB2; HspB2_Human; source: E. coli BL21(DE3), pET3a-HspB2/B3, purified (DEAE-Sepharose, Source 15Q)
B3: human HspB3 (wild type) (natural protein, UniProt Q12988 1-150, looked up)
chain: MAKIILRHLIEIPVRYQEEFEARGLEDCRLDHALYALPGPTIVDLRKTRAAQSPPVDSAAETPPREGKSHFQILLDVVQFLPEDIIIQTFEGWLLIKAQHGTRMDEHGFISRSFTRQYKLPDGVEIKDLSAVLCHDGILVVEVKDPVGTK
notes: human HspB3 (small heat shock protein B3); HspB3 could not be purified alone; it is obtained only in complex with HspB2; also called HsB3; HspB3_Human; source: E. coli BL21(DE3), pET3a-HspB2/B3 wild type, purified with HspB2 (DEAE-Sepharose, Source 15Q)
B4: rat HspB2 (natural protein, UniProt O35878 1-182, looked up)
chain: MSGRTVPHAHPATAEYEFANPSRLGEQRFGEGLLPEEILTPTLYHGYYVRPRAARAGEGGRAGASELRLSEGKFQAFLDVSHFTPDEVTVRTVDNLLEVSARHPQRLDRHGFVSREFCRTYVLPADVDPWRVRAALSHDGILNLEAPRGGRHLDTEVNEVYISLLPAPPDPEEEEEVARVEP
notes: rat HspB2, wild type; C-terminal residues E172 to P182 seen by NMR; also called RnB2; HspB2_Rat
B5: engineered human HspB3 with the C-terminal extension of human HspB2 (HspB3 + B2tail) (other)
chain: MAKIILRHLIEIPVRYQEEFEARGLEDCRLDHALYALPGPTIVDLRKTRAAQSPPVDSAAETPPREGKSHFQILLDVVQFLPEDIIIQTFEGWLLIKAQHGTRMDEHGFISRSFTRQYKLPDGVEIKDLSAVLCHDGILVVEVKDPVGTPEEEEEAAIVEP
notes: human HspB3 without its C-terminal lysine, which was replaced by the HspB2 tail; last 12 amino acids of human HspB2, residues 171-182; The results say the tail was added to the C-terminus; the methods say it replaced the C-terminal lysine (the reverse primer fits the methods); also called engineered HspB3 mutant; engineered mutant human HspB3; source: E. coli BL21(DE3), pET3a-HspB2/B3 mutant, …
B6: rat HspB3 (natural protein, UniProt Q9QZ58 1-152, looked up)
chain: MAKIILRHLIETPVRYQEEFEARGLEDCRLDHALYALPGPTIEDLRKARGTPKALAEDSDSAETPPGEGKSRFQILLDVVQFLPEDIIIQTFEGWLLIKAQHGTRMDEHGFISRSFTRQYKLPDGVETKDLSAILCHDGILVVEVKDPLETK
notes: rat HspB3, wild type; ultimate C-terminal residue K152; also called RnB3; HspB3_Rat

Data set [1] deals with the molecule itself. Nature of the data set: crystal structure; hanging drop at 21 °C; 3.9 Å; space group P3(1); three hetero-tetramers (12 chains) in the asymmetric unit.
For the data set “human HspB3 (wild type)”, the target named is B3. Nature of the data set: SEC + native MS; HspB2/B3 complexes; Superdex 200 10/300 fractions nanoelectrosprayed at 10 μM in 200 mM ammonium acetate (pH 6.9). Conditions: both partners purified.
The target in data set [2] is B5. Described as above. Conditions: both partners purified.
Data set [3] deals with the molecule itself. The data set is described as above.
For the data set “rat HspB2”, the target named is B4. Described as above. As to conditions: both partners purified.
For the data set “rat HspB3”, the target named is B6. Described as above. As to conditions: both partners purified.
Data set [4] has as its target B1. Nature of the data set: crystal structure; hanging drop at 21 °C; 3.9 Å; space group P3(1); three hetero-tetramers (12 chains) in the asymmetric unit. Conditions: both partners purified.
Data set [5] deals with B1. Nature of the data set: SEC + native MS; HspB2/B3 complexes; Superdex 200 10/300 fractions nanoelectrosprayed at 10 μM in 200 mM ammonium acetate (pH 6.9). Conditions: both partners purified.

On to B1, for which the binding result in data set [1] is “binds”. The “stoichiometry N” value (with human HspB3 (wild type); in data set [2]) was 3 HspB2 per HspB3 throughout.

B2: rat HspB2/B3 hetero-tetramer (complex)
chain 1: MSGRTVPHAHPATAEYEFANPSRLGEQRFGEGLLPEEILTPTLYHGYYVRPRAARAGEGGRAGASELRLSEGKFQAFLDVSHFTPDEVTVRTVDNLLEVSARHPQRLDRHGFVSREFCRTYVLPADVDPWRVRAALSHDGILNLEAPRGGRHLDTEVNEVYISLLPAPPDPEEEEEVARVEP
chain 2: MAKIILRHLIETPVRYQEEFEARGLEDCRLDHALYALPGPTIEDLRKARGTPKALAEDSDSAETPPGEGKSRFQILLDVVQFLPEDIIIQTFEGWLLIKAQHGTRMDEHGFISRSFTRQYKLPDGVETKDLSAILCHDGILVVEVKDPLETK
notes: rat HspB2, as m5; rat HspB3, as m6; The protomer that forms the higher oligomers; also called wild-type rat HspB2/B3; copies: 3 + 1
Consider B2, for which the “stoichiometry N” value in data set [3] is 8 to 24 chains (the hetero-tetramer has 4).
Consider B3, for which the binding result with rat HspB2 is given as “binds”.
For the molecule B4, in the data set with rat HspB3, the “stoichiometry N” value came out at 3 HspB2 per HspB3.
On to B5, for which the binding result in the data set with human HspB2 [4] is listed as “binds”.
For the molecule B6, the binding result with human HspB2 [5] is listed as “binds”.
